Changes are numbered by the printed parent chain.
T1: human FcγRIIb extracellular domain with C-terminal His tag (human, UniProt P31994 43-217)
T1 construct: extracellular domain; For crystals it was expressed with kifunensine and trimmed with Endo F1; also called FcgRIIb; FcγRIIb extracellular region
T1 sequence (looked up): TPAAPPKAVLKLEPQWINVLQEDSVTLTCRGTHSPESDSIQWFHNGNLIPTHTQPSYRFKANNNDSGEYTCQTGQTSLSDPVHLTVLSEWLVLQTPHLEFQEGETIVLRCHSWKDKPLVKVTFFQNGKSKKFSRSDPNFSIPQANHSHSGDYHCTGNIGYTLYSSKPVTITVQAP

T2: human FcγRIIa type H extracellular domain with C-terminal His tag (human, UniProt P12318 34-217)
T2 construct: extracellular domain; also called FcgRIIaH; FcγRIIa H
T2 sequence (looked up): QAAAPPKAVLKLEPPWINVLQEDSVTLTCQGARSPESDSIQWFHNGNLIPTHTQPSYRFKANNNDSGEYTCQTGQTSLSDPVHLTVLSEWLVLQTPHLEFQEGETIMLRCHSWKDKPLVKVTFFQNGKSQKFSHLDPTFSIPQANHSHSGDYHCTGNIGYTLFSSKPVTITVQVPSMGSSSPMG

B1: IL6R-BP423/IL6R-L (antibody, human IgG1, kappa)
heavy: QVQLQESGPGLVKPSETLSLTCAVSGHSISHDHAWSWVRQPPGEGLEWIGFISYSGITNYNPSLQGRVTISRDNSKNTLYLQMNSLRAEDTAVYYCARSLARTTAMDYWGEGTLVTVSSASTKGPSVFPLAPSSKSTSGGTAALGCLVKDYFPEPVTVSWNSGALTSGVHTFPAVLQSSGLYSLSSVVTVPSSSLGTQTYICNVNHKPSNTKVDKKVEPKSCDKTHTCPPCPAPDLLGDDSVFLFPPKPKDTLMISRTPEVTCVVVDVAEEDGEVKFNWYVDGVEVHNAKTKPREEQYNSTYRVVSVLTVLHQDWLNGKEYKCKVSNKALPRPIEKTISKAKGQPREPQVYTLPPSRDELTKNQVSLTCLVKGFYPSDIAVEWESNGQPENNYKTTPPVLDSDGSFFLYSKLTVDKSRWQQGNVFSCSVMHEALHNHYTQESLSLSP
light: not shown
B2: IL6R-BP429/IL6R-L (antibody, human IgG1, kappa)
heavy: B1 heavy with V266I, A269G
light: not shown
B3: IL6R-BP487/IL6R-L (antibody, human IgG1, kappa)
heavy: B1 heavy with V266I, P398M
light: not shown
B4: IL6R-BP437/IL6R-L (antibody, human IgG1, kappa)
heavy: B1 heavy with D235E, Y298D, I334T
light: not shown
B5: IL6R-BP445/IL6R-L (antibody, human IgG1, kappa)
heavy: B1 heavy with V266I
light: not shown
B6: IL6R-BP488/IL6R-L (antibody, human IgG1, kappa)
heavy: B1 heavy with V266I, Y298D
light: not shown
B7: IL6R-BP180/IL6R-L (antibody, human IgG1, kappa, name in EU numbering)
heavy: B1 heavy with D235E, A269S, E270H, R332K
light: not shown
B8: IL6R-BP209/IL6R-L (antibody, human IgG1, kappa, name in EU numbering)
heavy: B1 heavy with D235E, A269S, E270D, K328A
light: not shown
B9: IL6R-BP185/IL6R-L (antibody, human IgG1, kappa, name in EU numbering)
heavy: B1 heavy with L236Y, A269S, E270H, K328A, R332K
light: not shown
B10: IL6R-BP145/IL6R-L (antibody, human IgG1, kappa, name in EU numbering)
heavy: B1 heavy with D235E, L236Y, A269S, E270H, G273P, R332A
light: not shown
B11: IL6R-BP149/IL6R-L (antibody, human IgG1, kappa, name in EU numbering)
heavy: B1 heavy with L236Y, A269S, E270H, G273P, Y298D, K328A, R332K
light: not shown
notes: Same printed alterations as IL6R-BP214
B12: IL6R-BP147/IL6R-L (antibody, human IgG1, kappa, name in EU numbering)
heavy: B1 heavy with D235E, L236Y, A269S, E270H, G273P, K328A, R332K
light: not shown
B13: IL6R-BP213/IL6R-L (antibody, human IgG1, kappa, name in EU numbering)
heavy: B1 heavy with D239G, A269S, E270D
light: not shown
B14: IL6R-BP203/IL6R-L (antibody, human IgG1, kappa, name in EU numbering)
heavy: B1 heavy with D235E, A269S, E270H
light: not shown
B15: IL6R-BP206/IL6R-L (antibody, human IgG1, kappa, name in EU numbering)
heavy: B1 heavy with D239G, A269S, E270H
light: not shown
B16: IL6R-BP198/IL6R-L (antibody, human IgG1, kappa, name in EU numbering)
heavy: B1 heavy with L236Y, D239G, A269S, E270D, K328A, R332K
light: not shown
B17: IL6R-BP192/IL6R-L (antibody, human IgG1, kappa, name in EU numbering)
heavy: B1 heavy with D239G, A269S, E270D, Y298D, R332K
light: not shown
B18: IL6R-BP150/IL6R-L (antibody, human IgG1, kappa, name in EU numbering)
heavy: B1 heavy with D235E, L236Y, A269S, E270H, G273P, K328A
light: not shown
B19: IL6R-BP199/IL6R-L (antibody, human IgG1, kappa, name in EU numbering)
heavy: B1 heavy with D239G, A269S, E270H, G273P, K328A
light: not shown
B20: IL6R-BP186/IL6R-L (antibody, human IgG1, kappa, name in EU numbering)
heavy: B1 heavy with L236Y, A269S, E270H, Y298D, K328A, R332K
light: not shown
B21: IL6R-BP183/IL6R-L (antibody, human IgG1, kappa, name in EU numbering)
heavy: B1 heavy with L236Y, D239G, A269S, E270H, K328A, R332K
light: not shown
B22: IL6R-BP148/IL6R-L (antibody, human IgG1, kappa, name in EU numbering)
heavy: B1 heavy with L236Y, A269S, E270H, G273P, K328A, R332K
light: not shown
B23: IL6R-BP184/IL6R-L (antibody, human IgG1, kappa, name in EU numbering)
heavy: B1 heavy with D239G, A269S, E270H, R332K
light: not shown
B24: IL6R-BP144/IL6R-L (antibody, human IgG1, kappa, name in EU numbering)
heavy: B1 heavy with D235E, A269S, E270H, G273P, K328A, R332A
light: not shown
B25: IL6R-BP196/IL6R-L (antibody, human IgG1, kappa, name in EU numbering)
heavy: B1 heavy with D235E, L236Y, D239G, A269S, E270D, K328A, R332K
light: not shown
B26: IL6R-BP194/IL6R-L (antibody, human IgG1, kappa, name in EU numbering)
heavy: B1 heavy with L236Y, A269S, E270D, K328A, R332K
light: not shown
B27: IL6R-BP187/IL6R-L (antibody, human IgG1, kappa, name in EU numbering)
heavy: B1 heavy with D235E, L236Y, D239G, A269S, E270H, K328A, R332K
light: not shown
B28: IL6R-BP177/IL6R-L (antibody, human IgG1, kappa, name in EU numbering)
heavy: B1 heavy with L236Y, A269S, E270H, K328D, R332K
light: not shown
B29: IL6R-BP143/IL6R-L (antibody, human IgG1, kappa, name in EU numbering)
heavy: B1 heavy with D235E, L236Y, D239G, A269S, E270H, G273P, K328A, R332A
light: not shown
B30: IL6R-BP189/IL6R-L (antibody, human IgG1, kappa, name in EU numbering)
heavy: B1 heavy with D235E, A269S, E270D, K328A, R332K
light: not shown
B31: IL6R-BP179/IL6R-L (antibody, human IgG1, kappa, name in EU numbering)
heavy: B1 heavy with D235E, A269S, E270H, K328A, R332K
light: not shown
B32: IL6R-BP207/IL6R-L (antibody, human IgG1, kappa, name in EU numbering)
heavy: B1 heavy with D239G, A269S, E270H, G273P
light: not shown

Target: T1, human FcγRIIb extracellular domain with …
Test: SPR

Row | binding result | Binder
1 | binds | B1
2 | binds | B2
3 | binds | B3
4 | binds | B4
5 | binds | B5
6 | binds | B6

Target: T2, human FcγRIIa type H extracellular …
Test: SPR; IL6R-BF648/IL6R-L=100
Description: (§1) IL6R-L was utilized as the common antibody L chain for all of the antibodies, the antibodies were expressed and purified according to the method of Reference Example 1, and binding to each of the FcγRs (FcγRIa, FcγRIIa type H, FcγRIIa type R, FcγRIIb, and FcγRIIIa type V) was comprehensively evaluated by the method of Reference Example 2.
(§2) Relative binding activities were calculated for the results of analyzing interactions with the respective FcγRs according to the following method.

Row | relative binding activity | Binder
7 | 203 | B7
8 | 267 | B8
9 | 446 | B9
10 | 224 | B10
11 | 401 | B11
12 | 582 | B12
13 | 123 | B13
14 | 255 | B14
15 | 123 | B15
16 | 188 | B16
17 | 122 | B17
18 | 770 | B18
19 | 116 | B19
20 | 368 | B20
21 | 191 | B21
22 | 462 | B22
23 | 131 | B23
24 | 108 | B24
25 | 195 | B25
26 | 395 | B26
27 | 205 | B27
28 | 409 | B28
29 | 143 | B29
30 | 183 | B30
31 | 226 | B31
32 | 103 | B32

Target: T3, human FcγRIIIa type V extracellular domain with C-terminal His tag (human, UniProt P08637 17-208)
T3 construct: extracellular domain; also called FcgRIIIaV; FcγRIIIaV
Test: SPR; IL6R-BF648/IL6R-L=100
Description: as §1, §2

T3 sequence (P08637 17-208 F176V): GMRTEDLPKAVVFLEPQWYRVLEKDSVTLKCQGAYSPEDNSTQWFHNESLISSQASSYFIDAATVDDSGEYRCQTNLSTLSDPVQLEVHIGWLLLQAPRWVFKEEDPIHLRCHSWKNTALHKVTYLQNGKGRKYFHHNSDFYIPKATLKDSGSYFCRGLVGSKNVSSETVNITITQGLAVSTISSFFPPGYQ

Row | relative binding activity | Binder
33 | 100 | B7
34 | 153 | B8
35 | 191 | B9
36 | 153 | B10
37 | 186 | B11
38 | 209 | B12
39 | 100 | B13
40 | 88 | B14
41 | 92 | B15
42 | 157 | B16
43 | 118 | B17
44 | 204 | B18
45 | 103 | B19
46 | 143 | B20
47 | 113 | B21
48 | 227 | B22
49 | 106 | B23
50 | 128 | B24
51 | 137 | B25
52 | 249 | B26
53 | 124 | B27
54 | 186 | B28
55 | 114 | B29
56 | 141 | B30
57 | 125 | B31
58 | 97 | B32

Target: T4, human FcγRIa extracellular domain with C-terminal His tag (human, UniProt P12314 16-292)
T4 construct: Whole entry named; also called FcgRIa; FcgIa
Test: SPR; IL6R-BF648/IL6R-L=100
Description: as §1, §2

T4 sequence (P12314 16-292): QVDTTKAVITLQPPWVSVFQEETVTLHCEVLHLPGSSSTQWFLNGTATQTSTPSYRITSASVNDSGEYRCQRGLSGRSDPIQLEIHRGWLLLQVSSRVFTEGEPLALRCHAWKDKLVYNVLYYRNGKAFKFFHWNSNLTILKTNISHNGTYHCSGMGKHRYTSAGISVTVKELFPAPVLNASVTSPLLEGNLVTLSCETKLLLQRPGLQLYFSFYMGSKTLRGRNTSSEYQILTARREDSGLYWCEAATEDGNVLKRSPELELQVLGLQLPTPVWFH

Row | relative binding activity | Binder
59 | 29 | B7
60 | 68 | B8
61 | 47 | B9
62 | 41 | B10
63 | 29 | B11
64 | 24 | B12
65 | 118 | B13
66 | 35 | B14
67 | 101 | B15
68 | 104 | B16
69 | 109 | B17
70 | 30 | B18
71 | 112 | B19
72 | 43 | B20
73 | 83 | B21
74 | 33 | B22
75 | 96 | B23
76 | 64 | B24
77 | 89 | B25
78 | 69 | B26
79 | 68 | B27
80 | 57 | B28
81 | 86 | B29
82 | 56 | B30
83 | 39 | B31
84 | 74 | B32

Target: T1, human FcγRIIb extracellular domain with …
Test: SPR; IL6R-BF648/IL6R-L=100
Description: as §1, §2

Row | relative binding activity | Binder
85 | 179 | B7
86 | 186 | B8
87 | 179 | B9
88 | 152 | B10
89 | 173 | B11
90 | 177 | B12
91 | 169 | B13
92 | 185 | B14
93 | 168 | B15
94 | 164 | B16
95 | 172 | B17
96 | 183 | B18
97 | 144 | B19
98 | 175 | B20
99 | 164 | B21
100 | 176 | B22
101 | 171 | B23
102 | 121 | B24
103 | 157 | B25
104 | 178 | B26
105 | 157 | B27
106 | 177 | B28
107 | 133 | B29
108 | 177 | B30
109 | 177 | B31
110 | 124 | B32
